One block for each binder: values may come before it.
B4: human IL-17F (IL-17FF homodimer) (ligand, UniProt Q96PD4 31-163, looked up)
chain: RKIPKVGHTFFQKPESCPPVPGGSMKLDIGIINENQRVSMSRNIESRSTSPWNYTVTWDPNRYPSEVVQAQCRNLGCINAQGKEDISMNSVPIQQETLVVRRKHQGCSVSFQLEKVLVTVGCTCVTPVIHHVQ
notes: also called hIL-17F; hIL-17FF

How the values were obtained:
human TNFα [1] = target: T1, human TNFα (human, UniProt P01375 77-233); test: cell-based or functional assay
[2] = target: T2, human IL-17A (IL-17AA homodimer) (human, UniProt Q16552 20-155, limits assumed); test: cell-based or functional assay
T2 sequence (Q16552 20-155 limits assumed): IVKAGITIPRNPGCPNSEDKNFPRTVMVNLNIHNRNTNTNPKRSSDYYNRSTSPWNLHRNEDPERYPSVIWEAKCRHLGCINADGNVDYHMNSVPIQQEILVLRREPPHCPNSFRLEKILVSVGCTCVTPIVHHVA

[3] = target: B4; test: cell-based or functional assay
human TNFα [4] = target: T1, human TNFα; test: ELISA, cytokine coated on plate, binder titrated, HRP secondary antibody
[5] = target: T2, human IL-17A (IL-17AA homodimer); test: as above
[6] = target: B4; test: as above
human TNFα [7] = target: T1, human TNFα; test: ELISA
[8] = target: T2, human IL-17A (IL-17AA homodimer); test: ELISA
[9] = target: B4; test: ELISA
[10] = target: T3, wild-type IL-17RC (wtIL-17RC) (human, UniProt Q8NAC3 21-538, limits assumed); test: binding affinity analysis of Table 12 (Octet BLI as described in Example 5)
T3 construct: also called IL-17RC wild type
T3 sequence (looked up): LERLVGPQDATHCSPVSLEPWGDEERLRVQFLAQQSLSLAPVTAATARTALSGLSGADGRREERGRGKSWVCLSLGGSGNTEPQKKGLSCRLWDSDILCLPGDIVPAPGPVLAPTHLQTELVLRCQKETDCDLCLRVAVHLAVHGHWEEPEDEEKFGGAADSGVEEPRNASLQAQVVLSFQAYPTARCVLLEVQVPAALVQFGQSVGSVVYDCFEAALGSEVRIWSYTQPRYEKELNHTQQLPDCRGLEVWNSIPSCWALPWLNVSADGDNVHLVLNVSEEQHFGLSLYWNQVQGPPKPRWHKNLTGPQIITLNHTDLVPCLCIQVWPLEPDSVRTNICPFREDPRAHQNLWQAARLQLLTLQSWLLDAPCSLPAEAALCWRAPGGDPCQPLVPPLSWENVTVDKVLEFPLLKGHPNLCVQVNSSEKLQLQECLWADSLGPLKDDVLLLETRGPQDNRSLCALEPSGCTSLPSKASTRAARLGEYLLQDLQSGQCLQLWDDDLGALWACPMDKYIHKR

[11] = target: T2, human IL-17A (IL-17AA homodimer); test: ELISA as in Example 8, cytokine coated on plate
[12] = target: B4; test: ELISA as in Example 8, cytokine coated on plate
murine TNFα = target: T4, murine TNFα (mouse, UniProt P06804 80-235); test: ELISA as in Example 8, cytokine coated on plate
T4 construct: also called mTNFα; mouse TNFα
T4 sequence (looked up): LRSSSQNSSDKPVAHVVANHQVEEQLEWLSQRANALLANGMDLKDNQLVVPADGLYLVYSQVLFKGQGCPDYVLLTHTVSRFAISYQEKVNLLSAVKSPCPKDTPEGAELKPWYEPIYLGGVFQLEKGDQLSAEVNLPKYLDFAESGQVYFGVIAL

T1 sequence (P01375 77-233 limits assumed): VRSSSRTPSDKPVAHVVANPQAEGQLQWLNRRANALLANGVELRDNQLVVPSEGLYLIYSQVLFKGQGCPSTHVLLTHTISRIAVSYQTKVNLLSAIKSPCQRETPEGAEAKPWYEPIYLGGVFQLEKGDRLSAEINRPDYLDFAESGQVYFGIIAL

B1: T1-T4-14 (Fc fusion)
chain: LRLLDHRAPVCSQPGLNCTVKNSDCLDDSWIHPRNLTPSSPKDLQIQLHFAHTQQGDLVPVAHIEWTLQTDASILYLEGAELSVLQLDTNERLCVRFEFLSKLRHHHRRWRFTFSHFVVDPGQEYEVTVHHLPKPIPDGDPNHQSKNFLVPDCEHPRMKVTTPCMSSALPWLNVSADGDNVHLVLNVSEEQHFGLSLYWNQVQGPPKPRWHKNLTGPQIITLNHTDLVPCLCIQVWPLEPDSVRTNICPFREDPRAHQNLWQAARLRLLTLQSWLLDAPCSLPAEAALCWRAPGGDPCQPLVPPLSWENVTVDKVLEFPLLKGHPNLCVQVNSSEKLQLQECLWADSLGPLKDDVLLLETRGPQDNRSLCALEPSGCTSLPSKASTRAARLGEYLLQDLQSGQCLQLWDDDLGALWACPMDKYIHKTGIEGRMDRNTGRGGEEKKKEKEKEEQEERETKTPECPSHTQPLGVFLFPPKPKDTLMISRTPEVTCVVVDVSQEDPEVQFNWYVDGVEVHNAKTKPREEQFNSTYRVVSVLTVLHQDWLNGKEYKCKVSNKGLPSSIEKTISKAKGQPREPQVYTLPPSQEEMTKNQVSLTCLVKGFYPSDIAVEWESNGQPENNYKTTPPVLDSDGSFFLYSRLTVDKSRWQEGNVFSCSVMHEALHNHYTQKSLSLSLGKGGGGSGGGGSGGGGSLELPAQVAFTPYAPEPGSTCRLREYYDQTAQMCCAKCPPGQHAKVFCTKTSDTVCDSCEDSTYTQLWNWVPECLSCSSRCSSDQVETQACTREQNRICTCRPGWYCALSKQEGCRLCAPLSKCRPGFGVARPGTETSDVVCKPCAPGTFSNTTSSTDICRPHQICSVVAIPGNASMDAVCTSTSPTRSMAPGAVHLPQPVSTRSQHTQPTPGPSTAPSTSILLPMGPSPPAEGSTGD
notes: also called T1c-Fc-T4g; IL-17RA/RC-Fc-TNFR2 (T1-T4-14)
IC50 (ng/mL) of hTNFα, SEAP reporter assay in HEK-Blue TNFα cells (human TNFα [1]): 14.9 ng/mL
IC50 (ng/mL) of hIL-17A, SEAP reporter assay in HEK-Blue IL-17 cells [2]: 20.9 ng/mL
IC50 (ng/mL) of hIL-17F, SEAP reporter assay in HEK-Blue IL-17 cells [3]: 1150 ng/mL
EC50 (human TNFα [4]): 0.0438 µg/mL
EC50 [5]: 0.00924 µg/mL
EC50 [6]: 0.13 µg/mL
EC50 (human TNFα [7]): 0.068 µg/mL
EC50 [8]: 0.0752 µg/mL
EC50 [9]: 0.0702 µg/mL

B3: T1-T4-14 produced in pcDNA3.4 (Fc fusion)
chain: LRLLDHRAPVCSQPGLNCTVKNSDCLDDSWIHPRNLTPSSPKDLQIQLHFAHTQQGDLVPVAHIEWTLQTDASILYLEGAELSVLQLDTNERLCVRFEFLSKLRHHHRRWRFTFSHFVVDPGQEYEVTVHHLPKPIPDGDPNHQSKNFLVPDCEHPRMKVTTPCMSSALPWLNVSADGDNVHLVLNVSEEQHFGLSLYWNQVQGPPKPRWHKNLTGPQIITLNHTDLVPCLCIQVWPLEPDSVRTNICPFREDPRAHQNLWQAARLRLLTLQSWLLDAPCSLPAEAALCWRAPGGDPCQPLVPPLSWENVTVDKVLEFPLLKGHPNLCVQVNSSEKLQLQECLWADSLGPLKDDVLLLETRGPQDNRSLCALEPSGCTSLPSKASTRAARLGEYLLQDLQSGQCLQLWDDDLGALWACPMDKYIHKTGIEGRMDRNTGRGGEEKKKEKEKEEQEERETKTPECPSHTQPLGVFLFPPKPKDTLMISRTPEVTCVVVDVSQEDPEVQFNWYVDGVEVHNAKTKPREEQFNSTYRVVSVLTVLHQDWLNGKEYKCKVSNKGLPSSIEKTISKAKGQPREPQVYTLPPSQEEMTKNQVSLTCLVKGFYPSDIAVEWESNGQPENNYKTTPPVLDSDGSFFLYSRLTVDKSRWQEGNVFSCSVMHEALHNHYTQKSLSLSLGKGGGGSGGGGSGGGGSLELPAQVAFTPYAPEPGSTCRLREYYDQTAQMCCAKCPPGQHAKVFCTKTSDTVCDSCEDSTYTQLWNWVPECLSCSSRCSSDQVETQACTREQNRICTCRPGWYCALSKQEGCRLCAPLSKCRPGFGVARPGTETSDVVCKPCAPGTFSNTTSSTDICRPHQICSVVAIPGNASMDAVCTSTSPTRSMAPGAVHLPQPVSTRSQHTQPTPGPSTAPSTSILLPMGPSPPAEGSTGD
notes: Same named protein as T1-T4-14 but expressed from the pcDNA3.4 vector; also called IL-17RA/RC-Fc-TNFR2
EC50 (human TNFα [7]): 0.0873 µg/mL
EC50 [8]: 0.0607 µg/mL
EC50 [9]: 0.0455 µg/mL

Binder: B4
Kd [10]: 4 nM

Second part, the binder after the results:

EC50 (human TNFα [7]): 0.0443 µg/mL
EC50 [8]: 0.0543 µg/mL
EC50 [9]: 0.0621 µg/mL
B2: T1-T4-14+GT6 (glycan sialylated T1-T4-14) (Fc fusion)
chain: LRLLDHRAPVCSQPGLNCTVKNSDCLDDSWIHPRNLTPSSPKDLQIQLHFAHTQQGDLVPVAHIEWTLQTDASILYLEGAELSVLQLDTNERLCVRFEFLSKLRHHHRRWRFTFSHFVVDPGQEYEVTVHHLPKPIPDGDPNHQSKNFLVPDCEHPRMKVTTPCMSSALPWLNVSADGDNVHLVLNVSEEQHFGLSLYWNQVQGPPKPRWHKNLTGPQIITLNHTDLVPCLCIQVWPLEPDSVRTNICPFREDPRAHQNLWQAARLRLLTLQSWLLDAPCSLPAEAALCWRAPGGDPCQPLVPPLSWENVTVDKVLEFPLLKGHPNLCVQVNSSEKLQLQECLWADSLGPLKDDVLLLETRGPQDNRSLCALEPSGCTSLPSKASTRAARLGEYLLQDLQSGQCLQLWDDDLGALWACPMDKYIHKTGIEGRMDRNTGRGGEEKKKEKEKEEQEERETKTPECPSHTQPLGVFLFPPKPKDTLMISRTPEVTCVVVDVSQEDPEVQFNWYVDGVEVHNAKTKPREEQFNSTYRVVSVLTVLHQDWLNGKEYKCKVSNKGLPSSIEKTISKAKGQPREPQVYTLPPSQEEMTKNQVSLTCLVKGFYPSDIAVEWESNGQPENNYKTTPPVLDSDGSFFLYSRLTVDKSRWQEGNVFSCSVMHEALHNHYTQKSLSLSLGKGGGGSGGGGSGGGGSLELPAQVAFTPYAPEPGSTCRLREYYDQTAQMCCAKCPPGQHAKVFCTKTSDTVCDSCEDSTYTQLWNWVPECLSCSSRCSSDQVETQACTREQNRICTCRPGWYCALSKQEGCRLCAPLSKCRPGFGVARPGTETSDVVCKPCAPGTFSNTTSSTDICRPHQICSVVAIPGNASMDAVCTSTSPTRSMAPGAVHLPQPVSTRSQHTQPTPGPSTAPSTSILLPMGPSPPAEGSTGD
modifications: glycan sialylation (co-expressed with B4GALT6, fed with UMnG and ManNAc)
notes: Same polypeptide as T1-T4-14, with increased sialylation; also called T1-T4-14 produced in pcDNA3.4+GT6; glycan sialylated IL-17RA/RC-Fc-TNFR2

EC50 [11]: 0.0803 µg/mL
EC50 [12]: 0.0907 µg/mL
EC50 (murine TNFα): 0.071 µg/mL
B5: IL-17RA/RC-Fc-mTNFR2 (T1-mT4-35) (Fc fusion)
chain: LRLLDHRAPVCSQPGLNCTVKNSDCLDDSWIHPRNLTPSSPKDLQIQLHFAHTQQGDLVPVAHIEWTLQTDASILYLEGAELSVLQLDTNERLCVRFEFLSKLRHHHRRWRFTFSHFVVDPGQEYEVTVHHLPKPIPDGDPNHQSKNFLVPDCEHPRMKVTTPCMSSALPWLNVSADGDNVHLVLNVSEEQHFGLSLYWNQVQGPPKPRWHKNLTGPQIITLNHTDLVPCLCIQVWPLEPDSVRTNICPFREDPRAHQNLWQAARLRLLTLQSWLLDAPCSLPAEAALCWRAPGGDPCQPLVPPLSWENVTVDKVLEFPLLKGHPNLCVQVNSSEKLQLQECLWADSLGPLKDDVLLLETRGPQDNRSLCALEPSGCTSLPSKASTRAARLGEYLLQDLQSGQCLQLWDDDLGALWACPMDKYIHKTGIEGRMDRNTGRGGEEKKKEKEKEEQEERETKTPECPSHTQPLGVFLFPPKPKDTLMISRTPEVTCVVVDVSQEDPEVQFNWYVDGVEVHNAKTKPREEQFNSTYRVVSVLTVLHQDWLNGKEYKCKVSNKGLPSSIEKTISKAKGQPREPQVYTLPPSQEEMTKNQVSLTCLVKGFYPSDIAVEWESNGQPENNYKTTPPVLDSDGSFFLYSRLTVDKSRWQEGNVFSCSVMHEALHNHYTQKSLSLSLGKGGGGSGGGGSGGGGSLEVPAQVVLTPYKPEPGYECQISQEYYDRKAQMCCAKCPPGQYVKHFCNKTSDTVCADCEASMYTQVWNQFRTCLSCSSSCTTDQVEIRACTKQQNRVCACEAGRYCALKTHSGSCRQCMRLSKCGPGFGVASSRAPNGNVLCKACAPGTFSDTTSSTDVCRPHRICSILAIPGNASTDAVCAPESPTLSAIPRTLYVSQPEPTRSQPLDQEPGPSQTPSILTSLGSTPIIEQSTKGG
notes: The hTNFR2 ECD is replaced by the mouse TNFR2 ECD; also called hT1-mT4-35; T1-T4-35

— patent publication EP4682164A1 (Curogen Technology Co., Ltd., dated 2026)
